The labels stand for the following.
B1: TPR 5TU (parent)
chain: GGAUCUUCUCGAUCUAACAAAAAAGACAAAUCUGCCACAAAGCUUGAGAGCAUCUUCGGAUGCAGAGGCGGCAGCCUUCGGUGGCGCGAUAGCGCCAACGUUCUCAACUAUGACACGCAAAACGCGUGCUCCGUUGAAUGGAGUUUAUCAUG

This sample holds only a part of the variants without activity. Some results are limits rather than exact numbers.

The variants in this data set derive from B1. Briefly: polymerase ribozyme fitness, log enrichment relative to wild type (log ratio); higher = more active; in vitro selection for triplet polymerase activity. In a few lines: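 Both subunits of a heterodimeric triplet polymerase ribozyme were given their own mutant library, built by PCR and transcribed. Each library was annealed with a biotinylated primer, the partner subunit and triplets, incubated frozen at −7 °C, and its extended constructs gel-excised, captured on streptavidin beads and amplified by RT-PCR, all in one round done in triplicate. Fitness is the logarithm of genotype enrichment relative to wild-type enrichment, with replicates averaged by inverse-variance weighting. That logarithm is base 2, and Illumina-sequenced genotypes needed ≥10 input reads and ≥1 read per output.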
GGAUCUUCUCGAUCUAACAAAAAAGACAAAUCUGCCACAAAGCUUGAGAGCGACUUCGGAUGCAGAGGCGGCAGCCUUCGGUUGCGCGAUAGCGCCAACGUUCUCAACUAUGACACGCAAAACGCGUGCUCCGUUGAAUGGAGUUUAUCAUG [A52G U53A G83U]: the “polymerase ribozyme fitness (log ratio)” value was -2.28.

For the variant GGAUCGUCUCGAUCUAACAAAAAAGACAAAUCUGCCACAAAGCUUGAGAGCCUCCUCGGAUGCAGAGGCGACAGCCUUCGGUGGCCCGAUAGCGCCAACGUUCUCAACUAUGACACGCUAAACGCGUGCUCCGUUGAAUGGAGUUUAUCAUG [U6G A52C U55C G71A G86C A119U], the “polymerase ribozyme fitness (log ratio)” value is at most -4.2. In the case of GGAUCUUCUCGAUCUAACAAAAAAGACAAUUCUGCCACAAAGCUUGAGACCAUCUUCGGAUGCAGAGGCGCCAGCCUUCGGUGGCGCGAUAGCGCCAACGUUCUCAGCUAUGACACGCAAAACGCGUGCUCCGUUGAAUGGAGUUUAUCAUG [A30U G50C G71C A107G] it was at most -4.2; in that of GGAUCUUCUCGAUCUAACAAAAAAGACAAAUCUGCCACAAAGCUUGAGAGCAUCUUUGGGUGCAGAGGCGGCAGCCUUCGGUGGCGCGAUAGCGCCAACGUUCUCAACUAUGACACGCAAAACGCGUGCUCCCUUGAAUGGAGUUUAUCAUU [C57U A60G G133C G152U], -3.31. Under GGAUCUUCUCGAUCUAACAAAAAAGACAAAUCUGCCACAAAGCUUGAGAGCAUCUUGGGAUGCAGAGGCGGCAGCCUUCGGCGGCGCGAUAGCGUCAACGUUCUCAACUAUGACACGCAAAACGAGUGCUUCGUCGAAUGGAGUUCAUCAUG [C57G U82C C95U C125A C131U U135C U146C] stands -3.38.

Turning to GGAUCUUCUCGAUCUAAUAAAAAAGACAAAUCUGCCACAAAGCUUGAGAGCAUCUUCGGAUGCAGAGGCGGCAGCCUUCGGUGGCGUGAUAGCGCCAAGGUUCUCAACUAUGACACGCAAAACGCGUGCUCCGUUGAAUGGAGUUUAUCAUG [C18U C87U C99G], the “polymerase ribozyme fitness (log ratio)” value is -2.1.

For GGAUCUUCUCGAUCUAACAAAAAAGACAAAUCUGCCACAAAGCUUGAGAGCAUCUUCGGAUGCAGAGGCGGCAGUCUUCGGUGGUGCGAUAGCGCCAACGUUCUCAACUAUGACACGCAAAACGCGUGCUCCGUGGAAUGGAGUUAAUCAUG [C75U C85U U135G U146A], the “polymerase ribozyme fitness (log ratio)” value was -3.82. Under GGAUCUUCUCGAUCUAACAAAAAAGACAAAUCUGCCACAAAGCUUGAGAGUCUCUUCGGAUGCAGAGGCGGCAGCCUUCGGUGGCGCGAUAGCGCCAACGUUCUCAACUAUGACACGCAAAACGCGUGCUCCGUUGAAUGGAGUUUAUCAUG [C51U A52C] stands -1.33. As to GGAUCUUCUCGAUCUAACAAAAAAGACAAAUCUGCCACAAAGCUUGAGAGCAUCUUCGGAUGCAGAGGCGGCAGCCUUCGGUGGCGCGAUAGCGCCAACGGUCUCAACUAUGACACGCAAAACGCGUGCUCCGUUGAAUGGAGGUUAUCAUG [U101G U144G], the “polymerase ribozyme fitness (log ratio)” value was -0.737. Under GGAUCUUCUCGAUCUAACAAAAAAGACAAAUCUGCCACAAAGCUUGAGAGAAUCUUCGGAUGCAGAGGCGGCAGCGUUCGGUGGCGCCAUAGCGCCAACGUUAUCAACUAUGACACGCAAAACGAGUGCUCCGUUGAAUAGAGUUUAUCAUG [C51A C76G G88C C103A C125A G140A] stands at most -4.2; under GGAUCUUCUCGAUCUAACAAAAAAGACAAAUCUGCCACAAAGCUUGAGAGCAUCUUCGGAUGCAGAGGCGGCAGCCUUCGGUGGCGCGAUAGCGCCAACGUUCUCAACUAUGACACGCAAAACGCGUGCUCCGUUGAAUGAAGUUCAUCAUG [G141A U146C], 0.27. In the case of GGAUCUUCUCGAUCUAACAAAAAAGACAAAUCUGCCACAAAGCUUGAGAGCAUCUUCGGAUGCAGAGGCGGCAGCCUUCGGUGGCGCGAUAGCGCCUGCGUUCUCAACUAUGACACGCAAAACGCGUGCUCCGUUGAAUGGAGUUUAUCAUG [A97U A98G] it was -2.31; in that of GGUUCUUCUCGAUCUAACAAAAAAGACAAAUCUGCCACAAAGCUUGAGAGCAUCUUCGGAUGCAGAGGCGGCAGCCUUCGGUGGUGCGAUAGCGCCAACGUUCUCAACUAUGACACGCAAAACGCGUGCUCCGUUGAAUGGAGUUUAUCAUG [A3U C85U], -0.254.

On to GGAUCUUCUCGAUCUAACAAAAAAGACAAAUCUGCCACAGAGCUUGAGAGCAUCUUCGGAUGCAGAGGCGGCAGCCUUCGGUGGCGCGAUAGCGCCAACGUUCUCAACGAUGACACGCAAAACGCGUGCUCCGUUGAAUGGAGUUUAUCAUG [A40G U109G], for which the “polymerase ribozyme fitness (log ratio)” value is -3.14.

GGAUCUUCUCGAUCUAACAAAAAAGACAAAUCUGCCAAAAAGCUUGAGAGCAUCUUCGGAUGCAGAGGCGGCAGCCUUCGGUGGCGCGAUAGCGGCAACGUUCUCAACUAUGACACGCAAAACGCGUGCUCCGUUGAAUGGAGUUUAUCAUG [C38A C95G]: the “polymerase ribozyme fitness (log ratio)” value is -1.41. In the case of GGAUCUUCUCGAUCUAACAAAAAAGACAAAUCUGCCACAAAGAUUGAGAGCGUCUUCGGAUGCAGAGGCGGCAGCCUUCGGUAGCGCGAUAGCGCCAACGUUCUCAACUAUGACACGCAAAACUCGUGCUCCGUUGAAUGGAAUUUAUCAUG [C43A A52G G83A G124U G143A] it was at most -4.2; in that of GGAUCUUCUCGAUCUAACAAAAAAGACAAACCUGCCACAAAGCUUGAGAGCAUCUUCCGAUGCAGAGGCGGCAGCCUUCGGUGGCGCGAUAGCGGCGACGUUCUCAACUAUGACACGCAAAACGCGUGCUCCGUUGAAUGGAAUUUAUCAUG [U31C G58C C95G A97G G143A], -2.96. GGAUCUUCUCGCUCUAACCAAAAAGACAAAUCUGCCACAAAGCUUGAGAGCAUCUUCCGAUAUAGAGGCGGCAGCCUUCGGUGGCGCGAUAGCGCCGACGUUCUCAACUAUGACACGCAAAACGCGUGCUCCGUUGAAUGGAGUUUAUCAUG [A12C A19C G58C G62A C63U A97G]: the “polymerase ribozyme fitness (log ratio)” value was at most -4.2. Under GGAUCUUCUCGAUCUAACAAAAAAGACAAAUCUGCCCCAAAGCUUGAGAGCAUCUUCGGAUCCAGAGGCGGCAGCCUUCGGUGGCACGAUAGCGCGAAAGUUCUCAACUAUGACACGCAAAACGCGUGCUCCGUUGAAUGGAGUUUAUCAUG [A37C G62C G86A C96G C99A] stands at most -4.2.

Values taken from the RNAGym collection of RNA variant scans (doi:10.1073/pnas.2313332121).
